Consider 2 molecules from paper doi:10.1101/2022.06.15.496229 (bioRxiv, 2022).

B1: CDC42 (residues 1-191) (natural protein)
chain: not shown
B2: DHR2 domain of human DOCK10 (DOCK10^DHR2, residues 1695-2151) (domain or fragment)
chain: TPELRRTWLESMAKIHARNGDLSEAAMCYIHIAALIAEYLKRKGYWKVEKICTASLLSEDTHPCDSNSLLTTPSGGSMFSMGWPAFLSITPNIKEEGAMKEDSGMQDTPYNENILVEQLYMCVEFLWKSERYELIADVNKPIIAVFEKQRDFKKLSDLYYDIHRSYLKVAEVVNSEKRLFGRYYRVAFYGQGFFEEEEGKEYIYKEPKLTGLSEISQRLLKLYADKFGADNVKIIQDSNKVNPKDLDPKYAYIQVTYVTPFFEEKEIEDRKTDFEMHHNINRFVFETPFTLSGKKHGGVAEQCKRRTILTTSHLFPYVKKRIQVISQSSTELNPIEVAIDEMSKKVSELNQLCTMEEVDMIRLQLKLQGSVSVKVNAGPMAYARAFLEETNAKKYPDNQVKLLKEIFRQFADACGQALDVNERLIKEDQLEYQEELRSHYKDMLSELSTVMNEQITG

For series [1], the target named is B2. As to the kind of experiment: crystal structure.
The target of series [2] is B2. As to the kind of experiment: ITC. Background: Isothermal titration calorimetry measures the heat released or taken up as one component is titrated into another.
The series “crystal structure” concerns the molecule itself. In words: crystal structure.

For orientation: stoichiometry N means the number of molecules, sites or subunits per partner or assembly.

Take B1: in series [1], the “stoichiometry N” value worked out at 1 DOCK10^DHR2 per CDC42. Further, in series [2], the dH was determined as 2.034 ± 0.0143 kcal/mol.

For B2, the binding result in the series “crystal structure” is on record as “binds”.
